Laboratory results reported in article PMC9064986.

B1: BMPRII extracellular domain (ECD), wild type [human] / BMP10 growth factor (GF)-domain from Pro:BMP10 made in HEK EBNA cells [human] (parent)
chain 1: SQNQERLCAFKDPYQQDLGIGESRISHENGTILCSKGSTCYGLWEKSKGDINLVKQGCWSHIGDPQECHYEECVVTTTPPSIQNGTYRFCCCSTDLCNVNFTENFPPPDTTPLSPPHSFNRDET
chain 2: NAKGNYCKRTPLYIDFKEIGWDSWIIAPPGYEAYECRGVCNYPLAEHLTPTKHAIIQALVHLKNSQKASKACCVPTKLEPISILYLDKGVVTYKFKYEGMAVSECGCR

Tests used:
[1] = variants of: B1; assay: ELISA (prodomain displacement); conditions: with BMP10 growth factor (GF)-domain from Pro:BMP10 made in HEK EBNA cells [human]; BMPRII ECD at 125x excess over Pro:BMP10; lower reading = more prodomain displaced; parent: 0.42; read off a plot
[2] = variants of: B1; assay: native PAGE prodomain displacement (densitometry); conditions: with BMP10 growth factor (GF)-domain from Pro:BMP10 made in HEK EBNA cells [human], lower ratio = more prodomain displaced, read off a plot
[3] = variants of: B1; assay: SPR (Biacore); conditions: with Recombinant human BMP10 growth factor (GF)-domain (R&D Systems) [human], BMP10 immobilised on a CM5 Biacore chip
[4] = BMPRII ECD at 2-fold excess (2x) over Pro:BMP10, parent: 0.59
[5] = BMPRII ECD at 5-fold excess (5x) over Pro:BMP10, parent: 0.46

Variant: chain 1 Y41C
- screen value [1]: 1
- screen value [2, 4]: 0.93
- screen value [2, 5]: 0.88

Variant: chain 1 S81P
- screen value [1]: 0.3
- screen value [2, 4]: 0.7
- screen value [2, 5]: 0.66

Variant: chain 1 G42D
- screen value [1]: 0.95
- screen value [2, 4]: 0.82
- screen value [2, 5]: 0.72

Variant: chain 1 G57E
- screen value [1]: 1
- screen value [2, 4]: 0.93
- screen value [2, 5]: 0.88

Variant: chain 1 Q66H
- screen value [1]: 0.47
- screen value [2, 4]: 0.77
- screen value [2, 5]: 0.55

Variant: chain 1 G63E
- screen value [1]: 0.75
- screen value [2, 4]: 0.99
- screen value [2, 5]: 0.93

Variant: chain 1 G63A
- screen value [1]: 0.57
- screen value [2, 4]: 0.78
- screen value [2, 5]: 0.6

Variant: chain 1 G63W
- screen value [1]: 0.67
- screen value [2, 4]: 0.9
- screen value [2, 5]: 0.77

Variant: chain 1 N100S
- Kd ([3]; parent: 1.19e+03 nM): 1320 nM
- koff ([3]; parent: 0.161): 0.14 s⁻¹
- kon ([3]; parent: 1.35e+05): 106000 M⁻¹ s⁻¹
- screen value [1]: 0.52
- screen value [2, 4]: 0.64
- screen value [2, 5]: 0.39

Variant: chain 1 E72K
- screen value [1]: 0.42
- screen value [2, 4]: 0.49
- screen value [2, 5]: 0.19
